According to paper PMC8060896 (The Journal of Biological Chemistry, 2002):

B1: S1 co-produced with N-CEACAMFc in 293 cells (domain or fragment)
chain: GYIGDFRCIQTVNYNGNNASAPSISTEAVDVSKGRGTYYVLDRVYLNATLLLTGYYPVDGSNYRNLALTGTNTLSLTWFKPPFLSEFNDGIFAKVQNLKTNTPTGATSYFPTIVIGSLFGNTSYTVVLEPYNNIIMASVCTYTICQLPYTPCKPNTNGNRVIGFWHTDVKPPICLLKRNFTFNVNAPWLYFHFYQQGGTFYAYYADKPSATTFLFSVYIGDILTQYFVLPFICTPTAGSTLAPLYWVTPLLKRQYLFNFNEKGVITSAVDCASSYISEIKCKTQSLLPSTGVYDLSGYTVQPVGVVYRRVPNLPDCKIEEWLTAKSVPSPLNWERRTFQNCNFNLSSLLRYVQAESLSCNNIDASKVYGMCFGSVSVDKFAIPRSRQIDLQIGNSGFLQTANYKIDTAATSCQLYYSLPKNNVTINNYNPSSWNRRYGFKVNDRCQIFANILLNGINSGTTCSTDLQLPNTEVATGVCVRYDLYGITGQGVFKEVKADYYNSWQALLYDVNGNLNGFRDLTTNKTYTIRSCYSGRVSAAYHKEAPEPALLYRNINCSYVFTNNISREENPLNYFDSYLGCVVNADNRTDEALPNCNLRMGAGLCVDYSKSRRARRSVSTGYRLTTFEPYMPMLVNDSVQSVGGLYEMQIPTNFTIGHHEEFIQIRAPKVTIDCAAFVCGDNAACRQQLVEYGSFCDNVNAILNEVNNLLDNMQLQVASALMQGVTISSRLPDGISGPIDDINFSPLLGCIGSTCAE
B2: S1 (769-residue S1 fragment of the MHV strain JHM spike protein, produced independently from cDNA) (domain or fragment)
chain: GYIGDFRCIQTVNYNGNNASAPSISTEAVDVSKGLGTYYVLDRVYLNATLLLTGYYPVDGSNYRNLALTGTNTLSLTWFKPPFLSEFNDGIFAKVQNLKTNTPTGATSYFPTIVIGSLFGNTSYTVVLEPYNNIIMASVCTYTICQLPYTPCKPNTNGNRVIGFWHTDVKPPICLLKRNFTFNVNAPWLYFHFYQQGGTFYAYYADKPSATTFLFSVYIGDILTQYFVLPFICTPTAGSTLLPLYWVTPLLKRQYLFNFNEKGVITSAVDCASSYISEIKCKTQSLLPSTGVYDLSGYTVQPVGVVYRRVPNLPDCKIEEWLTAKSVPSPLNWERRTFQNCNFNLSSLLRYVQAESLSCNNIDASKVYGMCFGSVSVDKFAIPRSRQIDLQIGNSGFLQTANYKIDTAATSCQLYYSLPKNNVTINNYNPSSWNRRYGFNDAGVFGKSKHDVAYAQQCFTVRPSYCPCAQPDIVSACTSQTKPMSAYCPTGTIHRECSLWNGPHLRSARVGSGTYTCECTCKPNPFDTYDLRCGQIKTIVNVGDHCEGLGVLEDKCGNSDPHKGCSCANDSFIGWSHDTCLVNDRCQIFANILLNGINSGTTCSTDLQLPNTEVATGVCVRYDLYGITGQGVFKEVKADYYNSWQALLYDVNGNLNGFRDLTTNKTYTIRSCYSGRVSAAYHKEAPEPALLYRNINCSYVFTNNISREENPLNYFDSYLGCVVNADNRTDEALPNCDLRMGAGLCVDYSKSRRARR

Columns and labels:
[1] = biological target: N-CEACAMFc (N-domain of murine CEACAM1^a linked to a carboxyl-terminal IgG1 Fc) (murine); test: pull-down
[2] = biological target: N-CEACAMFc (N-domain of murine CEACAM1^a linked to a carboxyl-terminal IgG1 Fc) (murine); test: pull-down; remark: listed apart in the source
Target sequence in this assay (P31809 35-428): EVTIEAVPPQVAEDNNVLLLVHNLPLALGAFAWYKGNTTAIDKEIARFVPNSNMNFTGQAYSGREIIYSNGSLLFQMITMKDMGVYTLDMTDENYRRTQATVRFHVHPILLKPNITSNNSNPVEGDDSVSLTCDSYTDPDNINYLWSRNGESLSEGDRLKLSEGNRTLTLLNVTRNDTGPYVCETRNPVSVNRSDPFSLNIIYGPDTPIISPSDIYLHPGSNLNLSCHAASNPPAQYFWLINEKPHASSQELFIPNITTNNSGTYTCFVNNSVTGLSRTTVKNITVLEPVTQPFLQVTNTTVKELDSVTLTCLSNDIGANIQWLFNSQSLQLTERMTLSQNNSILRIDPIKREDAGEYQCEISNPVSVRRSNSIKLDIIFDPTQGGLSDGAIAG

[3] = biological target: the molecule itself; test: velocity sucrose gradient ultracentrifugation

Molecule	35S in the boxed band precipitated with N-CEACAMFc [1] [cpm]	other results
Hetero-oligomer of S_(T212S/Y214S/Y216S) with wild-type S1_(330) (from UniProt P11225 14-1235; P11225 14-330) (complex)	4330	
S_(T212S/Y214S/Y216S) (full-length S of JHM strain with the indicated substitutions) (from UniProt P11225 14-1235) (natural protein)	2140	
B1		^35S-labeled S1:^35S-labeled N-CEACAMFc ratio [2]: 3.4
B2		stoichiometry N [3]: 2
